Measured values published in publication PMC9352680, “A comprehensive thermodynamic model for RNA binding by the Saccharomyces cerevisiae Pumilio protein PUF4”.
Positions count from the first letter of the chain named. Names may count otherwise.

T1: PUF4 RNA-binding domain (Saccharomyces cerevisiae, UniProt P25339 537-888)
T1 sequence: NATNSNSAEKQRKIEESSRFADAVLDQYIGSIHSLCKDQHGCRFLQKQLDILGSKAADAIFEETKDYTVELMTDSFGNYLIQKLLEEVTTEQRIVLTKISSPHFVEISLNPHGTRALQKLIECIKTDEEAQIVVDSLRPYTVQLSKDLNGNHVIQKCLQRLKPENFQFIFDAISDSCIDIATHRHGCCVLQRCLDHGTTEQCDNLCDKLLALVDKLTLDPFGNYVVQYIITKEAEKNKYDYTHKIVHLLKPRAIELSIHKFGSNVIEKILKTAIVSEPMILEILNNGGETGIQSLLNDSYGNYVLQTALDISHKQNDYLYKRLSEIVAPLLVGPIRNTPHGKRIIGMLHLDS

B1: Ib_S1_P4E.1_K4.1_C4.1_H4.1_[A4G]_A4.1_F4.1_[A9G]_T4.1 (ssRNA)
RNA: UCUCUUUGUGUAUUGUCUCUU
B2: Ic_S4_P3E.1_K3.1_C3.1_H3.1_A3.1_[T5G]_[A6C]_F3.1_[T7G]_[A8G]_T3.1 (ssRNA)
RNA: UUUGACAACUGAUCGUUCUUUCUUGUAGCGGUUCUUUCUCGAUCAGUUGUCUUU
B3: Ic_S4_P3E.1_K3.1_C3.1_H3.1_A3.1_[T5C]_[A6T]_F3.1_[T7C]_T3.1 (ssRNA)
RNA: B2 RNA with G28C, C29U, G30C, G31A
B4: Ic_S4_P3E.1_K3.1_C3.1_H3.1_A3.1_[T5A]_[A6C]_F3.1_[T7G]_[A8T]_T3.1 (ssRNA)
RNA: B2 RNA with G28A, G31U
B5: Ic_S4_P3E.1_K3.1_C3.1_H3.1_A3.1_[T5G]_[A6T]_F3.1_[T7G]_[A8C]_T3.1 (ssRNA)
RNA: B2 RNA with C29U, G31C
B6: Ic_S4_P3E.1_K3.1_C3.1_H3.1_A3.1_[T5C]_[A6C]_F3.1_[A8T]_T3.1 (ssRNA)
RNA: B2 RNA with G28C, G30U, G31U
B7: Ic_S4_P3E.1_K3.1_C3.1_H3.1_A3.1_[T5A]_[A6C]_F3.1_[T7A]_[A8T]_T3.1 (ssRNA)
RNA: B2 RNA with G28A, G30A, G31U
B8: Ic_S4_P3E.1_K3.1_C3.1_H3.1_A3.1_[T5C]_[A6C]_F3.1_[T7C]_T3.1 (ssRNA)
RNA: B2 RNA with G28C, G30C, G31A
B9: Ic_S4_P3E.1_K3.1_C3.1_H3.1_A3.1_[T5C]_[A6T]_F3.1_[T7G]_[A8G]_T3.1 (ssRNA)
RNA: B2 RNA with G28C, C29U
B10: Ic_S4_P3E.1_K3.1_C3.1_H3.1_A3.1_[T5A]_[A6C]_F3.1_[T7A]_[A8C]_T3.1 (ssRNA)
RNA: B2 RNA with G28A, G30A, G31C
B11: Ic_S4_P3E.1_K3.1_C3.1_H3.1_A3.1_[T5G]_[A6C]_F3.1_[T7C]_[A8C]_T3.1 (ssRNA)
RNA: B2 RNA with G30C, G31C
B12: Ic_S4_P3E.1_K3.1_C3.1_H3.1_A3.1_[T5C]_F3.1_[T7G]_[A8T]_T3.1 (ssRNA)
RNA: B2 RNA with G28C, C29A, G31U
B13: Ic_S4_P3E.1_K3.1_C3.1_H3.1_A3.1_[T5A]_[A6C]_F3.1_[A8T]_T3.1 (ssRNA)
RNA: B2 RNA with G28A, G30U, G31U
B14: Ic_S4_P3E.1_K3.1_C3.1_H3.1_A3.1_[T5G]_[A6T]_F3.1_[T7A]_[A8T]_T3.1 (ssRNA)
RNA: B2 RNA with C29U, G30A, G31U
B15: Ic_S4_P3E.1_K3.1_C3.1_H3.1_A3.1_[T5C]_[A6T]_F3.1_[T7G]_[A8C]_T3.1 (ssRNA)
RNA: B2 RNA with G28C, C29U, G31C
B16: Ic_S4_P3E.1_K3.1_C3.1_H3.1_A3.1_[T5C]_[A6T]_F3.1_[T7A]_[A8C]_T3.1 (ssRNA)
RNA: B2 RNA with G28C, C29U, G30A, G31C
B17: Ic_S4_P3E.1_K3.1_C3.1_H3.1_A3.1_[T5C]_[A6G]_F3.1_[T7C]_T3.1 (ssRNA)
RNA: B2 RNA with G28C, C29G, G30C, G31A
B18: Ic_S4_P3E.1_K3.1_C3.1_H3.1_A3.1_[T5G]_[A6C]_F3.1_[T7G]_[A8C]_T3.1 (ssRNA)
RNA: B2 RNA with G31C
B19: Ic_S4_P3E.1_K3.1_C3.1_H3.1_A3.1_[T5A]_[A6C]_F3.1_[A8C]_T3.1 (ssRNA)
RNA: B2 RNA with G28A, G30U, G31C
B20: Ic_S4_P3E.1_K3.1_C3.1_H3.1_A3.1_[T5C]_[A6C]_F3.1_[T7A]_[A8C]_T3.1 (ssRNA)
RNA: B2 RNA with G28C, G30A, G31C
B21: Ic_S4_P3E.1_K3.1_C3.1_H3.1_A3.1_[T5C]_F3.1_[T7C]_[A8C]_T3.1 (ssRNA)
RNA: B2 RNA with G28C, C29A, G30C, G31C
B22: Ic_S4_P3E.1_K3.1_C3.1_H3.1_A3.1_[T5G]_[A6C]_F3.1_[T7C]_T3.1 (ssRNA)
RNA: B2 RNA with G30C, G31A
B23: Ic_S4_P3E.1_K3.1_C3.1_H3.1_A3.1_[T5G]_[A6T]_F3.1_[T7G]_[A8T]_T3.1 (ssRNA)
RNA: B2 RNA with C29U, G31U
B24: Ic_S4_P3E.1_K3.1_C3.1_H3.1_A3.1_[T5C]_F3.1_[A8T]_T3.1 (ssRNA)
RNA: B2 RNA with G28C, C29A, G30U, G31U
B25: Ic_S4_P3E.1_K3.1_C3.1_H3.1_A3.1_[T5C]_[A6C]_F3.1_[T7C]_[A8T]_T3.1 (ssRNA)
RNA: B2 RNA with G28C, G30C, G31U
B26: Ic_S4_P3E.1_K3.1_C3.1_H3.1_A3.1_[T5G]_[A6C]_F3.1_[T7A]_[A8T]_T3.1 (ssRNA)
RNA: B2 RNA with G30A, G31U
B27: Ic_S4_P3E.1_K3.1_C3.1_H3.1_A3.1_[T5G]_[A6C]_F3.1_[T7A]_[A8G]_T3.1 (ssRNA)
RNA: B2 RNA with G30A
B28: Ic_S4_P3E.1_K3.1_C3.1_H3.1_A3.1_[T5C]_[A6C]_F3.1_[T7A]_[A8T]_T3.1 (ssRNA)
RNA: B2 RNA with G28C, G30A, G31U
B29: Ic_S4_P3E.1_K3.1_C3.1_H3.1_A3.1_[T5C]_[A6T]_F3.1_[T7C]_[A8C]_T3.1 (ssRNA)
RNA: B2 RNA with G28C, C29U, G30C, G31C
B30: Ic_S4_P3E.1_K3.1_C3.1_H3.1_A3.1_[T5G]_[A6T]_F3.1_[T7A]_[A8C]_T3.1 (ssRNA)
RNA: B2 RNA with C29U, G30A, G31C
B31: Ic_S4_P3E.1_K3.1_C3.1_H3.1_A3.1_[T5C]_[A6T]_F3.1_[T7C]_[A8T]_T3.1 (ssRNA)
RNA: B2 RNA with G28C, C29U, G30C, G31U
B32: Ic_S4_P3E.1_K3.1_C3.1_H3.1_A3.1_[T5A]_[A6T]_F3.1_[T7A]_[A8G]_T3.1 (ssRNA)
RNA: B2 RNA with G28A, C29U, G30A
B33: Ic_S4_P3E.1_K3.1_C3.1_H3.1_A3.1_[T5C]_F3.1_[T7A]_T3.1 (ssRNA)
RNA: B2 RNA with G28C, C29A, G30A, G31A
B34: Ic_S4_P3E.1_K3.1_C3.1_H3.1_A3.1_[T5G]_[A6C]_F3.1_[A8C]_T3.1 (ssRNA)
RNA: B2 RNA with G30U, G31C
B35: Ic_S4_P3E.1_K3.1_C3.1_H3.1_A3.1_[T5G]_[A6C]_F3.1_[T7A]_[A8C]_T3.1 (ssRNA)
RNA: B2 RNA with G30A, G31C
B36: Ic_S4_P3E.1_K3.1_C3.1_H3.1_A3.1_[T5A]_[A6T]_F3.1_[T7C]_[A8T]_T3.1 (ssRNA)
RNA: B2 RNA with G28A, C29U, G30C, G31U
B37: Ic_S4_P3E.1_K3.1_C3.1_H3.1_A3.1_[T5C]_[A6T]_F3.1_[T7A]_T3.1 (ssRNA)
RNA: B2 RNA with G28C, C29U, G30A, G31A
B38: Ic_S4_P3E.1_K3.1_C3.1_H3.1_A3.1_[T5C]_[A6G]_F3.1_[T7G]_[A8C]_T3.1 (ssRNA)
RNA: B2 RNA with G28C, C29G, G31C
B39: Ic_S4_P3E.1_K3.1_C3.1_H3.1_A3.1_[T5C]_[A6T]_F3.1_[A8T]_T3.1 (ssRNA)
RNA: B2 RNA with G28C, C29U, G30U, G31U
B40: Ic_S4_P3E.1_K3.1_C3.1_H3.1_A3.1_[T5C]_F3.1_[T7C]_[A8T]_T3.1 (ssRNA)
RNA: B2 RNA with G28C, C29A, G30C, G31U
B41: Ic_S4_P3E.1_K3.1_C3.1_H3.1_A3.1_[T5C]_[A6T]_F3.1_[A8G]_T3.1 (ssRNA)
RNA: B2 RNA with G28C, C29U, G30U
B42: Ic_S4_P3E.1_K3.1_C3.1_H3.1_A3.1_[T5C]_[A6G]_F3.1_[T7C]_[A8G]_T3.1 (ssRNA)
RNA: B2 RNA with G28C, C29G, G30C
B43: Ib_S1_P4E.1_K4.1_C4.1_H4.1_[T3C]_A4.1_F4.1_[A9T]_T4.1 (ssRNA)
RNA: UCUCUUUGCAUAUUUUCUCUU
B44: Ib_S1_P4E.1_K4.1_C4.1_H4.1_[A4C]_A4.1_F4.1_[A9G]_T4.1 (ssRNA)
RNA: UCUCUUUGUCUAUUGUCUCUU
B45: Ic_S2_P5E.1_K5.1_C5.1_H5.1_A5.1_[T5C]_F5.1_[T8A]_[T9C]_[A10C]_T5.1 (ssRNA)
RNA: UUUGAUUAAUAUGAUAUCGUUCUUUCUUGUACUAACCUUCUUUCUCGAUAUCAUAUUAAUCUUU
B46: Ic_S2_P5E.1_K5.1_C5.1_H5.1_A5.1_[T5A]_[T6A]_[A7T]_F5.1_[T9A]_T5.1 (ssRNA)
RNA: B45 RNA with C32A, U33A, A34U, A35U, C36A, C37A
B47: Ic_S2_P5E.1_K5.1_C5.1_H5.1_A5.1_[T5G]_[A7C]_F5.1_[T9C]_[A10G]_T5.1 (ssRNA)
RNA: B45 RNA with C32G, A34C, A35U, C37G
B48: Ic_S2_P5E.1_K5.1_C5.1_H5.1_A5.1_[T6C]_F5.1_[T8G]_[T9C]_[A10C]_T5.1 (ssRNA)
RNA: B45 RNA with C32U, U33C, A35G
B49: Ic_S2_P5E.1_K5.1_C5.1_H5.1_A5.1_[T5C]_[T6G]_[A7C]_F5.1_[T8C]_[T9C]_T5.1 (ssRNA)
RNA: B45 RNA with U33G, A34C, A35C, C37A
B50: Ic_S2_P5E.1_K5.1_C5.1_H5.1_A5.1_[T6G]_[A7T]_F5.1_[T8A]_[T9A]_T5.1 (ssRNA)
RNA: B45 RNA with C32U, U33G, A34U, C36A, C37A
B51: Ic_S2_P5E.1_K5.1_C5.1_H5.1_A5.1_[T5G]_[T6C]_[A7C]_F5.1_[T8C]_[T9A]_[A10T]_T5.1 (ssRNA)
RNA: B45 RNA with C32G, U33C, A34C, A35C, C36A, C37U
B52: Ib_S1_P4E.1_K4.1_C4.1_H4.1_[G2A]_A4.1_F4.1_[A9T]_T4.1 (ssRNA)
RNA: UCUCUUUAUAUAUUUUCUCUU
B53: Ib_S1_P4E.1_K4.1_C4.1_H4.1_[T3C]_A4.1_F4.1_[A9G]_T4.1 (ssRNA)
RNA: UCUCUUUGCAUAUUGUCUCUU
B54: Ia_S1_P4E.1_K4.1_C4.1_H4.1_[G2A]_A4.1_F4.1_T4.1 (ssRNA)
RNA: UCUCUUUAUAUAUUAUCUCUU

target: T1, PUF4 RNA-binding domain; assay: Mg; RNA-MaP; 20 mM Na-HEPES pH 7.4, 30 mM KOAc, 0.75 mM MgCl2, 0.1% Tween-20, 5% glycerol, 0.1 mg/mL BSA, 2 mM DTT; 25 C; 0.0125-409.6 nM protein; conditions: tags: N-His6-TEV cleaved; C-SNAP kept, Cy3B-labelled; label: tethered on chip by stalled RNA polymerase

Row | Binder | Kd
1 | B1 | 18.3 nM
2 | B2 | 1270 nM
3 | B3 | 108 nM
4 | B4 | 270 nM
5 | B5 | 506 nM
6 | B6 | 13.4 nM
7 | B7 | 15.1 nM
8 | B8 | 487 nM
9 | B9 | 1840 nM
10 | B10 | 144 nM
11 | B11 | 648 nM
12 | B12 | 15.3 nM
13 | B13 | 21.6 nM
14 | B14 | 52.9 nM
15 | B15 | 442 nM
16 | B16 | 89.8 nM
17 | B17 | 444 nM
18 | B18 | 1710 nM
19 | B19 | 78.8 nM
20 | B20 | 79.7 nM
21 | B21 | 26.4 nM
22 | B22 | 616 nM
23 | B23 | 100 nM
24 | B24 | 2.28 nM
25 | B25 | 14.2 nM
26 | B26 | 35.8 nM
27 | B27 | 836 nM

Row | Binder | Kd
28 | B28 | 5.15 nM
29 | B29 | 120 nM
30 | B30 | 404 nM
31 | B31 | 12.3 nM
32 | B32 | 1240 nM
33 | B33 | 41.6 nM
34 | B34 | 192 nM
35 | B35 | 243 nM
36 | B36 | 18.3 nM
37 | B37 | 46.5 nM
38 | B38 | 1030 nM
39 | B39 | 10.1 nM
40 | B40 | 5.34 nM
41 | B41 | 103 nM
42 | B42 | 908 nM
43 | B43 | > 2300 nM
44 | B44 | 569 nM
45 | B45 | 228 nM
46 | B46 | 2.21 nM
47 | B47 | 706 nM
48 | B48 | 389 nM
49 | B49 | 558 nM
50 | B50 | 53.7 nM
51 | B51 | 819 nM
52 | B52 | 413 nM
53 | B53 | 1840 nM
54 | B54 | 14.1 nM
